Laboratory results as given in patent US9364516B2, “Treatment of fibrosis-related disorders using fibronectin binding proteins and polypeptides” (priority 2010, dated 2016).

Legend:
[1] = system: fibronectin matrix assembly; assay: Inhibition of fibronectin matrix assembly in cell culture; type: cell-based; details: cell culture experiments
Rat aortic SMCs = assay: Fibronectin and collagen I deposition in cultured SMCs (immunostaining); type: cell-based; details: 500 nM peptide, 3 days, serum containing media
Method: FIGS. 1A-1I depict the effect of pUR4 on fibronectin and collagen I deposition in smooth muscle cells (SMCs). Rat aortic SMCs were grown in serum containing media in the absence (FIGS. 1A-1C) or presence of 500 nM pUR4 (FIGS. 1D-1F) or control III-11C (FIGS. 1G-1I) peptides for 3 days. Cell were fixed, and then incubated with a polyclonal antibody to fibronectin (FIGS. 1A, 1D, and 1G) or collagen I (FIGS. 1B, 1E, and 1H). Bar, 20 μm.
Rat aortic smooth muscle cells (RASM) were obtained from Cell Applications (San Diego, Calif.) and maintained in serum containing media (Cell Applications). SMC were used at passages 4-6.
Previous data has shown that fibronectin regulates the deposition of other proteins into the ECM, including type I collagen (Sottile et al., “Fibronectin Polymerization Regulates the Composition and Stability of Extracellular Matrix Fibrils and Cell-Matrix Adhesions,” Mol. Biol. Cell. 13:3546-3559 (2002), which is hereby incorporated by reference in its entirety). […] However, there was a trend toward decreased fibronectin and collagen I mRNA in the carotid artery of animals treated with pUR4 in comparison with control peptide-treated animals (Table 3).

type I collagen = assay: ELISA binding of pUR4 to ECM proteins: collagen I; details: plates coated 10 μg/mL, FIG. 7
Method: FIG. 7 is a graph depicting the binding of pUR4 to ECM Proteins. 96-well plates were coated with 10 μg/mL type I collagen (COL), denatured type I collagen (dCOL), fibronectin (FN), laminin (LN), vitronectin (VN), or fibrinogen (FG) at 4° C. overnight. pUR4 was added to the wells and serially diluted. Bound pUR4 was detected as described herein. Measurements were done at 405 nm on a Wallac 1420 multilabel counter. Data represents the average of duplicate determinations, and the error bars the range.
96-well tissue culture plates were coated with 10 μg/mL type I collagen, fibronectin, laminin, fibrinogen, or vitronectin overnight at 4° C. Denatured collagens were generated as described (George et al., “Fibronectins are Essential for Heart and Blood Vessel Morphogenesis but are Dispensable for Initial Specification of Precursor Cells,” Blood 90:3073-3081 (1997), which is hereby incorporated by reference in its entirety). Plates were blocked with 1% bovine serum albumin (BSA) in Tris buffered saline (TBS) for 1 hour, then washed with TBS. pUR4 was serially diluted into coated wells, then incubated at room temperature for 90 min. Wells were washed with TBS containing 0.1% Tween 20. […] After washing, peroxidase activity was quantified by using 2,2′-azino-bis-(3-ethylbenthiazoline-[…]). […]

C57/Bl6 mice = assay: Myocardial infarction by permanent coronary ligation; type: in vivo, mouse
Method: C57/B16 male mice (12 wks) underwent permanent coronary ligation injury. pUR4 or control peptide (III-11C or del29) was delivered (25 mg/kg/day) in randomized fashion immediately following induction of EKG-verified MI, then once daily via IP injection for 6 days. Serial, investigator-blind echocardiography for 4 weeks was followed by sacrifice; hearts were excised, weighed, and prepared for histological processing. […] FIG. 14B show the % fractional shortening (FS) in control (III-11C, n=8) and pUR4 (n=9) groups.
The therapeutic benefit of pUR4 mediated inhibition of fibronectin polymerization was investigated in a mouse model of myocardial infarction (MI). Male C57/Bl6 mice underwent permanent coronary artery ligation injury, verified at time of surgery by EKG S-T elevation. pUR4 or III-11C were administered via i.p. injection immediately following ligation. Animals subsequently received once daily IP injection for 6 days, and were followed for 4 weeks total. Serial, investigator blind echocardiography assessed cardiac function at baseline, 2 weeks, and 4 weeks.

human saphenous veins = assay: Ex vivo cultured human saphenous veins, intimal thickening; details: 15 μM, 14 days culture in 10% FBS/M199
Method: Saphenous veins were cut into 0.5 cm segments, and processed immediately (●) or cultured in 10% FBS/M199 containing 15 μM control III-11c peptide (▪) or pUR4 (▴) at 37° C. for 14 days. Veins were fixed, paraffin embedded, sectioned, and stained. Morphometric analysis was performed on six randomly chosen sections using Image-Pro Plus software. The intima/media ratio was determined by dividing intima area by media area. Paired student t-test was used to analyze the data. Data are expressed as mean±S.E.M. *p<0.05.
Human saphenous veins cultured in serum containing media develop intimal hyperplasia after 14 days in culture (Soyombo et al., “Intimal Proliferation in an Organ Culture of Human Saphenous Vein,” Am J Pathol. 137(6):1401-1410 (1990); Angelini et al., “Smooth Muscle Cell Proliferation in Response to Injury in an Organ Culture of Human Saphenous Vein,” Eur J Vasc Surg. 5(1):5-12 (1991); and Slomp et al., “Nature and Origin of the Neointima in Whole Vessel Wall Organ Culture of the Human Saphenous Vein,” Virchows Arch. 428(1):59-67 (1996), which are hereby incorporated by reference in their entirety). This system thus provides an ex vivo model system for studying mechanisms that lead to intimal hyperplasia that has distinct advantages over in vitro culture systems. […]

fibronectin = fibronectin (Homo sapiens, UniProt P02751); details: cited from earlier work
[2] = 25 mg/kg/day IP, one week of treatment, up to 4 weeks post-MI
[3] = echocardiography post-MI, p<0.05

Chain of fibronectin (P02751 32-2477): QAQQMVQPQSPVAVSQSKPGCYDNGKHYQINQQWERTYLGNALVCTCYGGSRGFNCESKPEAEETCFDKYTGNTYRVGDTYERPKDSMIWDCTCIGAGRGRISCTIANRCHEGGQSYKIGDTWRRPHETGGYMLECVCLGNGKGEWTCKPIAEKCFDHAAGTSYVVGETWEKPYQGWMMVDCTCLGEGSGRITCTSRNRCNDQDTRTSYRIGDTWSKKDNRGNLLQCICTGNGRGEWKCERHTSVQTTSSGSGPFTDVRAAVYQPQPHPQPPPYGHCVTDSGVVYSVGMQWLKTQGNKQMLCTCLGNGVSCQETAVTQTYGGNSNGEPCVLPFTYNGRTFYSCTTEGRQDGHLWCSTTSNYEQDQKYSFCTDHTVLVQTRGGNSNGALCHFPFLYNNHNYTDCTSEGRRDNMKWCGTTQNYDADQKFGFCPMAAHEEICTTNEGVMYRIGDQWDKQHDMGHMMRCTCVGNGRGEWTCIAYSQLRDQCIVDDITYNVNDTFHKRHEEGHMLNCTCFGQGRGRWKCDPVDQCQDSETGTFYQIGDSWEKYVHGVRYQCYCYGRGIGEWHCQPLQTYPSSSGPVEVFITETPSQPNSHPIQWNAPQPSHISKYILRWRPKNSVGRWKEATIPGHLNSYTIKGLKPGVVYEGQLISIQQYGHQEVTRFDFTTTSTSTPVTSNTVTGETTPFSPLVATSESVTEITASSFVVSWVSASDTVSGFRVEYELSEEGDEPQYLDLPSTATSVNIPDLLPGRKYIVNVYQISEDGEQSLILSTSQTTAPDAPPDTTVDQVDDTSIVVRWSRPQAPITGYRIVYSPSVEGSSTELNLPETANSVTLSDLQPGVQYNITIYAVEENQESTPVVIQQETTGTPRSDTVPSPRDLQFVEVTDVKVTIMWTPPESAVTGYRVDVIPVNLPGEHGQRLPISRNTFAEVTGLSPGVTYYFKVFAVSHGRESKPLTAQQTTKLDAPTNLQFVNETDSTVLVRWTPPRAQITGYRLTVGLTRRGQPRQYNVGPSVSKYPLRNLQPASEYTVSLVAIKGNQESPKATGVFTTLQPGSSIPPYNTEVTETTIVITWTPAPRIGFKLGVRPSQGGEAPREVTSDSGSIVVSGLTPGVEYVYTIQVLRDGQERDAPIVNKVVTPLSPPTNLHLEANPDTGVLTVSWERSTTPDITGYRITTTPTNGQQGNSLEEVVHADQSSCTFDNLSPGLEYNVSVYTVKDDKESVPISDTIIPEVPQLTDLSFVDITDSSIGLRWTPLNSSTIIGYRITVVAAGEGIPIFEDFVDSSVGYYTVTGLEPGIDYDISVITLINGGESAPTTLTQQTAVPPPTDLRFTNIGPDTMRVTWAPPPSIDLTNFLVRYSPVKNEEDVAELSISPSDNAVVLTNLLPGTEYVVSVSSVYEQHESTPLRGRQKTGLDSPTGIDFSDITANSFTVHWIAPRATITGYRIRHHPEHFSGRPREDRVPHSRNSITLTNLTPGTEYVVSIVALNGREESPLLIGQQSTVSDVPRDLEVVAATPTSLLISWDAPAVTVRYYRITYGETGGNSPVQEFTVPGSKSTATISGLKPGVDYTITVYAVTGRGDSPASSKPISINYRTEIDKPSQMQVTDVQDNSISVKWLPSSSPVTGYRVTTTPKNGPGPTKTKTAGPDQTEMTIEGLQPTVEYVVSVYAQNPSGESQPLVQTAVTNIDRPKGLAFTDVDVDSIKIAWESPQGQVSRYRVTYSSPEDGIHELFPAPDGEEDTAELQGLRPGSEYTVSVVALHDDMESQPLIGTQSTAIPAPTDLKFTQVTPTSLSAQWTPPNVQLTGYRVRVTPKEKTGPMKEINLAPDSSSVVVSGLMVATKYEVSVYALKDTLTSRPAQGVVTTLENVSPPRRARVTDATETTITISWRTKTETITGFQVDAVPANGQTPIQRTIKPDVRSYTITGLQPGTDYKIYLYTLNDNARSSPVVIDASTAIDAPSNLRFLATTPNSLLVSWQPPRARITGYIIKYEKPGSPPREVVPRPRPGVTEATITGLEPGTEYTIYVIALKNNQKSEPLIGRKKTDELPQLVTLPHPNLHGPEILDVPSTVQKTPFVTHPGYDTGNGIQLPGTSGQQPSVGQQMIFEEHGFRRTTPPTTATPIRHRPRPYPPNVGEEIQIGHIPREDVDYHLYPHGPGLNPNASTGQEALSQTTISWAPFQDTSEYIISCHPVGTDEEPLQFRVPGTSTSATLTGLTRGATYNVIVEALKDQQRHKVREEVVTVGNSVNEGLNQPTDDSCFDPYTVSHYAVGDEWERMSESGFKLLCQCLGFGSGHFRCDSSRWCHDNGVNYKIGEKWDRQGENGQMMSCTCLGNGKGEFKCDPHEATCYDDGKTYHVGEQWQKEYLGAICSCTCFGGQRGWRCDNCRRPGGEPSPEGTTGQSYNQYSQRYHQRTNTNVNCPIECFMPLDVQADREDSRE

B1: pUR4: 49-mer peptide derived from the bacterial F1 adhesin, His tagged, SEQ ID NO:1; class I fibronectin polymerization inhibitor (peptide)
chain: MRGSHHHHHHGSKDQSPLAGESGETEYITEVYGNQQNPVDIDKKLPNETGFSGNMVETEDTKLN
modifications: His tag; Bacterial adhesin derived peptide pUR4
concentration effective at inhibiting fibronectin matrix assembly [1]: 50 to 100 nM | deposition of endogenous collagen I into matrix fibrils (Rat aortic SMCs): inhibited | deposition of endogenous fibronectin into the ECM (Rat aortic SMCs): inhibited | binding to collagen I (type I collagen): does not bind | cardiac function (% fractional shortening) (C57/Bl6 mice; [2]): preserved | cardiac hypertrophy (heart weight to body weight ratio) (C57/Bl6 mice; [2]): reduced | fibronectin deposition within the infarcted area and remote myocardium (C57/Bl6 mice; 4 weeks post-MI): reduced | collagen and fibronectin deposition post-MI (C57/Bl6 mice; FIGS. 15 and 16): reduced | end systolic diameter (C57/Bl6 mice; [3]): 2.91±0.27 | end-diastolic diameter (C57/Bl6 mice; [3]): 4.12±0.22 | cardiac remodeling, infarct size and infarct expansion (C57/Bl6 mice; histology 4 weeks post-MI): reduction | intima/media ratio (human saphenous veins): decreases | binding to fibronectin (fibronectin): binds
